Reference: IntAct's records for PubMed 15743816

B1: Bud emergence protein 1 (Saccharomyces cerevisiae), P29366 (parent)
chain: MLKNFKLSKRDSNGSKGRITSADISTPSHDNGSVIKHIKTVPVRYLSSSSTPVKSQRDSSPKNRHNSKDITSPEKVIKAKYSYQAQTSKELSFMEGEFFYVSGDEKDWYKASNPSTGKEGVVPKTYFEVFDRTKPSSVNGSNSSSRKVTNDSLNMGSLYAIVLYDFKAEKADELTTYVGENLFICAHHNCEWFIAKPIGRLGGPGLVPVGFVSIIDIATGYATGNDVIEDIKSVNLPTVQEWKSNIARYKASNISLGSVEQQQQQSITKPQNKSAKLVDGELLVKASVESFGLEDEKYWFLVCCELSNGKTRQLKRYYQDFYDLQVQLLDAFPAEAGKLRDAGGQWSKRIMPYIPGPVPYVTNSITKKRKEDLNIYVADLVNLPDYISRSEMVHSLFVVLNNGFDREFERDENQNNIKTLQENDTATFATASQTSNFASTNQDNTLTGEDLKLNKKLSDLSLSGSKQAPAQSTSGLKTTKIKFYYKDDIFALMLKGDTTYKELRSKIAPRIDTDNFKLQTKLFDGSGEEIKTDSQVSNIIQAKLKISVHDI
partner: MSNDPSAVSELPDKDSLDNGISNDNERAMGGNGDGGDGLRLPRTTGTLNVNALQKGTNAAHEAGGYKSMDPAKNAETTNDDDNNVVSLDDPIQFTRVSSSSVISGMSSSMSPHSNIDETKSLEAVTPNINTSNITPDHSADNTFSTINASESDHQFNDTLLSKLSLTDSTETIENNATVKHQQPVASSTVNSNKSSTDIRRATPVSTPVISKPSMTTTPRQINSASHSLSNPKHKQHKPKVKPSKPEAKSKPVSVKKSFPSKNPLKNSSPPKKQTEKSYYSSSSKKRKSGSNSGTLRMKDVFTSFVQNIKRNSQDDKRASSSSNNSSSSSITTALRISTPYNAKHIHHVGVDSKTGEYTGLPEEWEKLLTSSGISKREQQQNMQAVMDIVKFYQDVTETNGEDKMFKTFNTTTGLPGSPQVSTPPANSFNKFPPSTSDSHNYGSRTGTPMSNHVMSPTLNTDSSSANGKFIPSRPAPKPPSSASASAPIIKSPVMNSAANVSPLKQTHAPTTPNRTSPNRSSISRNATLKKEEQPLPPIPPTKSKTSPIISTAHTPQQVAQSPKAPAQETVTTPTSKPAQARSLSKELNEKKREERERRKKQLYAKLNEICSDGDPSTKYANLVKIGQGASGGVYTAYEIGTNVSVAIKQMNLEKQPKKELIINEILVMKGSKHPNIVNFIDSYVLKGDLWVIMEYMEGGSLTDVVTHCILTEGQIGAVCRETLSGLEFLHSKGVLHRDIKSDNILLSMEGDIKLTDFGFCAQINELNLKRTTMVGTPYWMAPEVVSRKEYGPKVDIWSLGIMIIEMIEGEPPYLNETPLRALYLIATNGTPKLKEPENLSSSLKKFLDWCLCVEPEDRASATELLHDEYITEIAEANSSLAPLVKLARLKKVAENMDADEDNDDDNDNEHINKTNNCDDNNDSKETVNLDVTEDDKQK
B2: Serine/threonine-protein kinase STE20 (Saccharomyces cerevisiae), Q03497 (parent)
chain: B1 partner
partner: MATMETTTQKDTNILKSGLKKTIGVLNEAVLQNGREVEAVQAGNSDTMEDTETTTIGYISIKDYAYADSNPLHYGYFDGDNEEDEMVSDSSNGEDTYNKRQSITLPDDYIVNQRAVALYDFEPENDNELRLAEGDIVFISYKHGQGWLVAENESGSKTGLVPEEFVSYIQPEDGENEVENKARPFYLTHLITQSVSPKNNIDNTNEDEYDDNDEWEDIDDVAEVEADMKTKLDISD
B3: Serine/threonine-protein kinase STE20 (Saccharomyces cerevisiae), Q03497 (parent)
chain: B1 partner
partner: B1 chain

Variants of: B1
Conditions: with ste20_yeast STE20, Q03497

| effect of a mutation on the interaction | Variant |
| --- | --- |
| decreasing interaction | MLKNFKLSKRDSNGSKGRITSADISTPSHDNGSVIKHIKTVPVRYLSSSSTPVKSQRDSSPKNRHNSKDITSPEKVIKAKYSYQAQTSKELSFMEGEFFYVSGDEKDWYKASNPSTGKEGVVPKTYFEVFDRTKPSSVNGSNSSSRKVTNDSLNMGSLYAIVLYDFKAEKADELTTYVGENLFICAHHNCEAFIAKPIGRLGGPGLVPVGFVSIIDIATGYATGNDVIEDIKSVNLPTVQEWKSNIARYKASNISLGSVEQQQQQSITKPQNKSAKLVDGELLVKASVESFGLEDEKYWFLVCCELSNGKTRQLKRYYQDFYDLQVQLLDAFPAEAGKLRDAGGQWSKRIMPYIPGPVPYVTNSITKKRKEDLNIYVADLVNLPDYISRSEMVHSLFVVLNNGFDREFERDENQNNIKTLQENDTATFATASQTSNFASTNQDNTLTGEDLKLNKKLSDLSLSGSKQAPAQSTSGLKTTKIKFYYKDDIFALMLKGDTTYKELRSKIAPRIDTDNFKLQTKLFDGSGEEIKTDSQVSNIIQAKLKISVHDI [W192A] |

Variants of: B2
Conditions: with nbp2_yeast NBP2, Q12163

| effect of a mutation on the interaction | Variant |
| --- | --- |
| decreasing interaction | P475G;P477A |

Variants of: B3
Conditions: with bem1_yeast BEM1, P29366

| Variant | effect of a mutation on the interaction |
| --- | --- |
| R474G | decreasing interaction |
| I471G | decreasing interaction |
| P475G;P477A | decreasing interaction |
| P472A | decreasing interaction |
| F470G | decreasing interaction |
| P475G | decreasing interaction |
| S473A | decreasing interaction |

Next, values leading:

| effect of a mutation on the interaction | Variant |
| --- | --- |
| decreasing interaction | P479A |
| decreasing interaction | P477A |
| decreasing interaction | P480A |
| decreasing interaction | A476G |

Variants of: B3
Conditions: with bem1_yeast BEM1, P29366
Remark: another data set of the same source

| effect of a mutation on the interaction | Variant |
| --- | --- |
| decreasing interaction | P475G;P477A |
